Results reported in US20160355587A1 (published 2016).
Numbering of substitutions follows the chain as printed.

T1: human CD166 protein (human, UniProt Q13740 28-526)
T1 chain: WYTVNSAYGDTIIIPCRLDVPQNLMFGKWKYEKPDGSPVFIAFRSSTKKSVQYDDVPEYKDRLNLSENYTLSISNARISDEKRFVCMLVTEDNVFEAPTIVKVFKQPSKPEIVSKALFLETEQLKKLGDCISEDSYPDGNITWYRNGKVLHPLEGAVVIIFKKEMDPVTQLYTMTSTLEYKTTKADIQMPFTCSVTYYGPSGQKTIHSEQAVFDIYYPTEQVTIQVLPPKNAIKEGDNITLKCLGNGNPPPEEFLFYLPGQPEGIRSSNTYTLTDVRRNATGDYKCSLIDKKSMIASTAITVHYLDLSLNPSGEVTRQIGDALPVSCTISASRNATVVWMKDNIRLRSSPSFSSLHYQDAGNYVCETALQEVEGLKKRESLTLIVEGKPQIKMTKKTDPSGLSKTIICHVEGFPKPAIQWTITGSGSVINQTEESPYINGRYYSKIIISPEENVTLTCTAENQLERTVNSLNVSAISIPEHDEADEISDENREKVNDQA

B1: human CD166 (receptor)
chain: T1 chain
B2: CD166-M9_vk3a/HcB (antibody, V domains shown)
VH: QITLKESGPTLVKPTQTLTLTCTFSGFSLSTYGMGVGWIRQPPGKALEWLANIWWSEDKHYSPSLKSRLTITKDTSKNQVVLTMTNMDPVDTATYYCVQIDYGNDYAFTYWGQGTLVTVSS
VL: DIVMTQSPLSLPVTPGEPASISCRSSQSLLHSNGITYLYWYLQKPGQSPQLLIYQMSNRASGVPDRFSGSGSGTDFTLKISRVEAEDVGVYYCAQNLELPYTFGQGTKLEIK
B3: CD166-M9_vK2/HcC (antibody, V domains shown)
VH: B2 VH with M84I, M87V
VL: B2 VL with Q27K, R59L, G69S
B4: CD166-M9_vK3b/HcB (antibody, V domains shown)
VH: B2 VH
VL: B2 VL with G69S
B5: CD166-M9_vK3a/HcC (antibody, V domains shown)
VH: B2 VH with M84I, M87V
VL: B2 VL
B6: CD166-M9_vK3b/HcC (antibody, V domains shown)
VH: B2 VH with M84I, M87V
VL: B2 VL with G69S

Target: CD166-M9_chimera
Assay: FACS; apparent Kd

Kd [nM] | Binder
1.12 | B1

Target: T1, human CD166 protein
Assay: FACS; apparent Kd

Kd [nM] | Binder
2.88 | B2
2.5 | B3
2.61 | B4
3.76 | B5
3.19 | B6
